{"source": "paper PMC11602996", "about": "“Discovery, characterization, and structure of a cofactor-independent histidine racemase from the oral pathogen Fusobacterium nucleatum” (The Journal of Biological Chemistry, 2024)", "proteins": {"B1": {"name": "HisR from F. nucleatum ATCC 23726 (Fusobacterium nucleatum subsp. nucleatum ATCC 23726) (protein)", "chain": "MDGKVQVLDFIKINPAGNITILIDNFDIYDKNIPKLSEEIMKETNLYAEQVGFIKEKHLQMMGGEFCGNASRSFASLLAFRDKDFSEQKNYSITCSGESEVLDVDVRTDGAKNKFLAKIKMPKFISLEEISIDEYKLGLVRFSGISHFIFNIKENKETSFENIIDLVKKYLSNEDYSAFGIMFFDKDNLSMKPYVYVKELESGIYENSCASGTTALGYYLKKYKNLDRAKVVQPNGWLEYIIENDEMYIDGPVEIVAEGKVYI"}, "B2": {"name": "HisR (FN1732, predicted DapF) from F. nucleatum ATCC 25586 (Fusobacterium nucleatum subsp. nucleatum ATCC 25586) (protein)", "chain": "MDRKVQVLDFIKINPAGNITILIDNFDIYDKNIPKLSEEIMKETNLYAEQVGFIKDSHLQMMGGEFCGNASRAFASLLAFRDKDFSKQKNYNITCSGESKVLDVDVRNDGAKNKFLAKIKMPKFLSLEEINVDEYKLGLVRFSGINHFIFNIKENKETSFENIIDLVKKYLSNEEYSAFGIMFFDSDNLSMKPYVYVKEVGSGVYENSCASGTTALGYYLKKCKNLDRAKIVQPNGWLEYIIENDEMYIDGPVEIIAEGKIYIGK", "notes": "C-terminal hexahistidine tag, codon-optimized gene in pET-24b(+), expressed in E. coli BL21(DE3), Ni-NTA purified; homodimer"}}, "key": {"[1]": {"substrate": "N[C@@H](Cc1c[nH]cn1)C(=O)O", "test": "purified protein", "type": "biochemical, Fusobacterium nucleatum", "conditions": "20 mM NaH2PO4, 100 mM NaCl, pH 7.5, 25 °C"}, "[2]": {"substrate": "N[C@H](Cc1c[nH]cn1)C(=O)O", "test": "purified protein", "type": "biochemical, Fusobacterium nucleatum", "conditions": "20 mM NaH2PO4, 100 mM NaCl, pH 7.5, 25 °C"}}, "data": [{"protein": "B1", "values": [{"measurement": "Km", "setting": "[1]", "result": 5, "unit": "mM"}, {"measurement": "kcat", "setting": "[1]", "result": 42, "unit": "s⁻¹"}, {"measurement": "kcat/Km", "setting": "[1]", "result": 9000, "unit": "M⁻¹ s⁻¹"}, {"measurement": "Km", "setting": "[2]", "result": 18, "unit": "mM"}, {"measurement": "kcat", "setting": "[2]", "result": 64, "unit": "s⁻¹"}, {"measurement": "kcat/Km", "setting": "[2]", "result": 4000, "unit": "M⁻¹ s⁻¹"}]}, {"protein": "B2", "values": [{"measurement": "Km", "setting": "[1]", "result": 4, "unit": "mM"}, {"measurement": "kcat", "setting": "[1]", "result": 74, "unit": "s⁻¹"}, {"measurement": "kcat/Km", "setting": "[1]", "result": 20000, "unit": "M⁻¹ s⁻¹"}, {"measurement": "Km", "setting": "[2]", "result": 24, "unit": "mM"}, {"measurement": "kcat", "setting": "[2]", "result": 250, "unit": "s⁻¹"}, {"measurement": "kcat/Km", "setting": "[2]", "result": 10000, "unit": "M⁻¹ s⁻¹"}]}]}
